Data on three molecules can be found in patent publication US20210002644, “ANTI-CHYMASE APTAMER AND USE FOR SAME” (RIBOMIC INC., published 2021).

Settings in all cases: tags: Calbiochem Human Skin
Series [1] deals with T1, chymase (native, human skin mast cell) (Homo sapiens, UniProt P23946 P23946:22-247).
T1 sequence: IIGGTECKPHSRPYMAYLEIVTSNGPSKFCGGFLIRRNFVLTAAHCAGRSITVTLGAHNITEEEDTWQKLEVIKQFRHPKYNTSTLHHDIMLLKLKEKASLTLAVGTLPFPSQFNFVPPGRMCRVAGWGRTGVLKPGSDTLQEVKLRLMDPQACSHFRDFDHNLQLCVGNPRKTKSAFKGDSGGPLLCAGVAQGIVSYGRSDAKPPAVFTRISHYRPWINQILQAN
The experiment in a line: inhibition; angiotensin I substrate, 37 C, 1.8 mM Ca, 0.8 mM Mg, pH 7.6. As to the method: Whether the nucleic acids shown by SEQ ID NO: 9 and 10 inhibit the enzyme activity of chymase was determined by the following method. Angiotensin I is converted by chymase to angiotensin II, during which a peptide fragment His-Leu is released. Since the peptide His-Leu is fluorescently derivatized by o-phthalaldehyde, its fluorescence intensity can be quantitatively measured.
(§1) The total volume of solution for an enzyme reaction in the assay was set to 50 μL, and the reaction was performed in solution C buffer. At first, native (manufactured by Calbiochem) was diluted with solution C to give 5 μL thereof. Here, the native is chymase purified from human skin mast cell. […] The whole mixture was centrifuged at 4° C., 14000 rpm for 10 min, and the supernatant (30 μL) was used for the next fluorescence induction reaction.
The above-mentioned supernatant (30 μL) was added to a 96 well plate (black, manufactured by Costar), a solution (15 μL) of 2% o-phthalaldehyde (manufactured by SIGMA) in methanol and 0.3M NaOH solution (170 μL) were added to each well, and the mixture was incubated at room temperature for 10 min. […] The plate was set on a microplate reader SpectraMax190 (manufactured by Molecular device) and the fluorescence intensity was measured at an excitation wavelength of 355 nm and a fluorescence wavelength of 460 nm.

Series [2] has as its target T1, chymase (native, human skin mast cell). The experiment in a line: inhibition; angiotensin I substrate; second G of GGGG 2'-OMe. As to the method:
as §1, with “cell. The nucleic acid was serially diluted with solution C at a concentration of 0.0027-2 μM to give 25 μL thereof. The chymase solution (5 μL) and the nucleic acid solution (25 μL) were mixed, and the mixture was incubated at 37° C. for 5 min. On the other hand, […] angiotensin I (manufactured by PEPTIDE […], INC.) was prepared in solution C to give 20 μL thereof, which was incubated at 37° C. for 5 min.” for “cell.”
(§2) The above-mentioned supernatant (30 μL) was added to a 96 well plate (black, manufactured by Costar), a solution (15 μL) of 2% o-phthalaldehyde (manufactured by SIGMA) in methanol and 0.3M NaOH solution (170 μL) were added to each well, and the mixture was incubated at room temperature for 10 min. […] The plate was set on a microplate reader SpectraMax190 (manufactured by Molecular device) and the fluorescence intensity was measured at an excitation wavelength of 355 nm and a fluorescence wavelength of 460 nm. […]

Series [3] has the same target. The experiment in a line: inhibition; angiotensin I substrate; 40 kDa PEG. As to the method:
as §1, with “cell. The nucleic acid was serially diluted with solution C at a concentration of 0.0027-2 μM to give 25 μL thereof. The chymase solution (5 μL) and the nucleic acid solution (25 μL) were mixed, and the mixture was incubated at 37° C. for 5 min. On the other hand, […] angiotensin I (manufactured by PEPTIDE […], INC.) was prepared in solution C to give 20 μL thereof, which was incubated at 37° C. for 5 min.” for “cell.”
as §2

B1: SEQ ID NO: 9 (ssRNA)
RNA: GGGAACGAAGCGACAGACGUUCCAGCGUCUAAUACGUGAAUAACCUGAUCGUAGGGGGUUCAAGUACUGAGGACAGA
modifications: 2'-F pyrimidines (U, C); purines 2'-OH
As usually defined, the IC50 is the concentration that gives 50% inhibition. Higher therefore signals weaker potency in that assay. In series [1], B1 yielded an IC50 of 0.22 nM. That is a sub-nanomolar value.

B2: SEQ ID NO: 33(9) (mixed)
RNA: AUGAUCGGACAUAACUAAUUAGGGGUGUCAA
modifications: idT-A(M)U(M)G(M)A(M)U(F)C(F)G(M)G(M)A(M)C(M)A(M)U(M)AAC(M)U(F)A(M)A(M)U(M)U(M)A(M)G(M)G(M)G(M)G(M)tG(M)U(M)C(M)A(M)A(M)-idT (F=2'-F, M=2'-OMe)
Molecule B2 had an IC50 in series [2] of 1.35 nM.

B3: SEQ ID NO: 33(18) (mixed)
RNA: AUGAUCGGACAUAACUAAUUAGGGGUGUCAA
modifications: PEG-A(M)U(M)G(M)A(M)U(F)C(F)G(M)G(M)A(M)C(M)A(M)U(M)AAC(M)U(F)A(M)A(M)U(M)TA(M)G(M)GG(M)G(M)TG(M)U(M)C(M)A(M)A(M)-idT (F=2'-F, M=2'-OMe, PEG=40 kDa branched PEG)
As for B3, in series [3], the IC50 is 0.109 nM.
